How the values were obtained:
DcR2 = biological target: T1, DcR2 (Homo sapiens, UniProt Q9UBN6); assay: SPR receptor binding assay, immobilized DcR2-Ig; conditions: 0.1-250 nM ligand
T1 construct: soluble, recombinant DcR1-Ig (sDcR1) and DcR2-Ig (sDcR2); purchased R&D Systems
T1 sequence (Q9UBN6 56-211 limits assumed): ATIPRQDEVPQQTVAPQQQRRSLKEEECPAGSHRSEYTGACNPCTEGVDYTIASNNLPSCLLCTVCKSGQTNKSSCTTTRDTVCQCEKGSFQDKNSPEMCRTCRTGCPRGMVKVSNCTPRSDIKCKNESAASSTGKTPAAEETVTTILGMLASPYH
Procedure: The response data (in response units) as a function of TRAIL concentration were fitted using a four parameter equation to give an apparent pre-steady state affinity constant.
Binding experiments were performed at 37° C. using a surface plasmon resonance-based biosensor (Biacore 3000, Biacore AB, Uppsala, Sweden) as previously described^10. In short, DcR1-Ig and DcR2-Ig receptor chimeras (R&D Systems) were captured at a 35 μl/min flow rate using a protein A (Sigma) modified CM5 sensor chip (Biacore). Receptor chimeras were captured at a level of ˜500-800 response units (RU). […] Binding of ligands to the receptors was monitored in real-time. Between injections the protein A sensor surface was regenerated using a 30s pulse of 0.1 M glycine 0.5 M NaCl pH 3. Due to the very slow dissociation of the TRAIL-receptor complex, only pre-steady state binding data could be obtained. In order to obtain data that represent proper high-affinity complex formation, the response at each concentration was recorded 30 sec after the end of the injection. The response data (in response units) as a function of TRAIL concentration were fitted using a four parameter equation to give an apparent pre-steady state affinity constant.
Affinity of the ligands was assessed by measuring receptor binding in a concentration range of 0.1-250 nM.

DR4 = biological target: T2, DR4 (Homo sapiens, UniProt O00220); assay: SPR binding to immobilized DR4-Ig; conditions: pre-steady state SPR
T2 construct: the more commonly used dimeric TRAIL-receptor-IgG Fc chimeric constructs
T2 sequence (O00220 24-239 limits assumed): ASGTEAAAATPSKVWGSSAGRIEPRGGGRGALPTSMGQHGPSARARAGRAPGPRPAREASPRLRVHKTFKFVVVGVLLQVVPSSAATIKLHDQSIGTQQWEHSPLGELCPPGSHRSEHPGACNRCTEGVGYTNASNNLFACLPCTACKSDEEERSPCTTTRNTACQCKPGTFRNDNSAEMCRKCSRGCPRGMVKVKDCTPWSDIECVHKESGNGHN
Text: In other experiments dissociation was continued for periods of up to 2,000 sec, with similar results. As a consequence it is essentially impossible to obtain a dissociation rate constant and thus to calculate the affinity from the association and dissociation rate constants. We therefore chose to use the pre-steady state approach to analyse the data^10. […] With these two changes this variant has become an TRAIL variant that binds to DR5 with high selectivity and affinity.

B1: D269HE195R: rhTRAIL (114-281) carrying mutations D269H and E195R; DR5-selective TRAIL variant (protein)
chain: MVRERGPQRVAAHITGTRGRSNTLSSPNSKNEKALGRKINSWESSRSGHSFLSNLHLRNGELVIHEKGFYYIYSQTYFRFQERIKENTKNDKQMVQYIYKYTSYPDPILLMKSARNSCWSKDAEYGLYSIYQGGIFELKENDRIFVSVTNEHLIDMHHEASFFGAFLVG
binding toward DcR2 compared to wtTRAIL (DcR2): reduced
affinity for DR4-Ig compared to wtTRAIL (DR4): almost abolished

From patent US20110165265A1, “TRAIL VARIANTS FOR TREATING CANCER” (FUNDACIÓ GENÒMICA (CRG), priority 2007, published 2011)
